# According to PMC4222533 (Biochemistry, 2014):
# B1: skelemin tandem IgC2 domains 4 and 5 with the interconnecting linker, C1354S (domain or fragment)
# chain: DEEEMKRLLALSQEHKFPTVPTKSELAVEILEKGQVRFWMQAEKLSSNAKVSYIFNEKEIFEGPKYKMHIDRNTGIIEMFMEKLQDEDEGTYTFQIQDGKATGHSTLVLIGDVYKKLQKEAEFQRQEWIRKQGPHFAEYLSWEVTGESNVLLKCKVANIKKETHIVWYKDEREISVDEKHDFKDGICTLLITEFSKKDAGFYEVILKDDRGKDKSRLKLVD
# modifications: uniformly 15N or 15N/13C labelled for NMR
# Target: integrin αIIb cytoplasmic tail peptide (starting from W988)
# Experiment: ITC
binder,measurement,value
B1,Kd,14.2 ± 4.3 µM
